Values of other authors in paper PMC6162179.

What was measured:
[1] = molecular target: Thioredoxin (Escherichia coli) [thioredoxin: P0AA25]
[2] = molecular target: gp5 DNA polymerase (Escherichia phage T7) (UniProt P00581)
gp5 DNA polymerase (Escherichia phage T7), sequence (P00581 whole entry): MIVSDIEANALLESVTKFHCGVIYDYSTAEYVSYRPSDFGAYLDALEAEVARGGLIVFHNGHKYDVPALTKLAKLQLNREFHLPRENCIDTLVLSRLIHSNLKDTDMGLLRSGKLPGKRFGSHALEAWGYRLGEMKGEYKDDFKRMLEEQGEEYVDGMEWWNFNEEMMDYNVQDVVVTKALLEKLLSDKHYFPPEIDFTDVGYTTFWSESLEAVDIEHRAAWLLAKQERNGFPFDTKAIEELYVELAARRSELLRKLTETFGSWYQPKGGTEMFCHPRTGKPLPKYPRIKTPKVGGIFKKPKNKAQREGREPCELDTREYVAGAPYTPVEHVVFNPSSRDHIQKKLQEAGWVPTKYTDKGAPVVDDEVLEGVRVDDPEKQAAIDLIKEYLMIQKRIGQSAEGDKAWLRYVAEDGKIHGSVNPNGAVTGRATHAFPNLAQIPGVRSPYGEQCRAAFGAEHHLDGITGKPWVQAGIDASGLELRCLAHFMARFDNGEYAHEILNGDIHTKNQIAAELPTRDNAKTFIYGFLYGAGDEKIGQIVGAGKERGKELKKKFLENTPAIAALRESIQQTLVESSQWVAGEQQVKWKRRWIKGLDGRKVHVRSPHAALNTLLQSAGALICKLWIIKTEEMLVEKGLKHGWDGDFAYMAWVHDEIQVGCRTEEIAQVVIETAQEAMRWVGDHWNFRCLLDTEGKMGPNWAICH

gp2.5, sequence (P03696 whole entry): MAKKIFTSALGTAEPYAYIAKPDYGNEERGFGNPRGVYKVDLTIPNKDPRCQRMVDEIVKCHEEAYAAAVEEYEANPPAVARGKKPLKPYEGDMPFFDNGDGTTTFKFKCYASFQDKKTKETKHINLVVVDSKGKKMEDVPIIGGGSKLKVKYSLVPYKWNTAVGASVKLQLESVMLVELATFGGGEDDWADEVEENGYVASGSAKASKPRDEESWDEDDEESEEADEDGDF
Thioredoxin (Escherichia coli) [thioredoxin: P0AA25], sequence (P0AA25 2-109): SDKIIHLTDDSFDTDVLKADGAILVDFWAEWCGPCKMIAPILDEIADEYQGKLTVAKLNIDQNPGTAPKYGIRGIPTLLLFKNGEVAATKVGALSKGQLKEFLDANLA

In the case of gp2.5 (from UniProt P03696), the Kd [1] is given as 500 µM and the Kd [2] is given as 1 µM.
